Our source for the Kd values is article PMC4078746.

In this assay the target is Slit D2 (the Robo-binding domain of Slit) (Drosophila). Put plainly: SPR.

The substance “Robo1 Ig1-5 fragment (Ig domain-containing portion of the Robo ectodomain) (domain or fragment)” returned a Kd of 0.235 µM. This counts as sub-micromolar.

Substance “Robo2 Ig1-5 fragment (Ig domain-containing portion of the Robo2 ectodomain) (domain or fragment)” had an equilibrium dissociation constant (Kd) of 1.1 µM.
